Reference: PMC2775743, “Structural insights into the substrate tunnel of Saccharomyces cerevisiae carbonic anhydrase Nce103” (BMC Structural Biology, 2009)

B1: Nce103ΔN13 (enzyme, S. cerevisiae, UniProt P53615 14-221, looked up)
chain: HNSNLQDILAANAKWASQMNNIQPTLFPDHNAKGQSPHTLFIGCSDSRYNENCLGVLPGEVFTWKNVANICHSEDLTLKATLEFAIICLKVNKVIICGHTDCGGIKTCLTNQREALPKVNCSHLYKYLDDIDTMYHEESQNLIHLKTQREKSHYLSHCNVKRQFNRIIENPTVQTAVQNGELQVYGLLYNVEDGLLQTVSTYTKVTPK
notes: Carbonic anhydrase Nce103 (β-class), S. cerevisiae strain S288C, ORF YNL036W, without the N-terminal 13 residues; residues His14 to Lys221; One zinc ion for each subunit; In the crystal the His tag, His14-Ser16 and Pro41-Gln48 are not seen in the density; also called truncated NCE103 without the N-terminal 13 residues; β-CA Nce103/YNL036W; source: for crystallization in 20 mM acetate buffer, pH …
B2: Nce103ΔN50 (enzyme, S. cerevisiae, UniProt P53615 51-221, looked up)
chain: HTLFIGCSDSRYNENCLGVLPGEVFTWKNVANICHSEDLTLKATLEFAIICLKVNKVIICGHTDCGGIKTCLTNQREALPKVNCSHLYKYLDDIDTMYHEESQNLIHLKTQREKSHYLSHCNVKRQFNRIIENPTVQTAVQNGELQVYGLLYNVEDGLLQTVSTYTKVTPK
notes: Carbonic anhydrase Nce103 (β-class), S. cerevisiae strain S288C, ORF YNL036W, residues His51-Lys221; the tag is probably N-terminal here too; also called truncated NCE103 without the N-terminal 50 residues

Key:
[1] = target: the molecule itself; assay: crystal structure; Nce103ΔN13, hanging drop vapor diffusion at 16°C; 20% PEG4000, 0.1 M sodium citrate pH 5.6, 0.1 M sodium acetate, 20% ethylene glycol; two molecules in the asymmetric unit; 2.04 Å
[2] = target: the molecule itself; assay: not stated; oligomeric state in solution, noted during purification (Ni2+ affinity, Superdex 75 gel filtration); how it was determined is not told

Row | Protein | stoichiometry N [1] | stoichiometry N [2]
1 | B1 | 2 | –
2 | B2 | – | 2
